Results taken from paper PMC8882007, “Syndapin-2 mediated transcytosis of amyloid-β across the blood–brain barrier” (Brain Communications, 2022).

Key:
LRP1/Rab5 = molecular target: T1, LRP1/Rab5 (Mus musculus, UniProt Q91ZX7); assay: Proximity ligation assay LRP1/Rab5 in BECs treated with Aβ assemblies; assay type: cell-based; settings: Aβ assemblies at 100 nM for 15 min (Fig. 6B2)
T1 construct: endogenous in cells; host or cells: bEnd3 (ATCC CRL-2299)
Description: (§1) Polarized bEnd3 were washed twice with PBS, fixed in 4% (w/v) PFA in PBS for 15 min and permeabilized with 0.1% (w/v) Triton X-100 in PBS for 10 min. PLA was carried out by using Duolink probes and detection reagents according to the supplier’s instructions. Briefly, monolayers were incubated with Duolink blocking solution for 1 h at 37°C and then incubated with the two antibodies targeting each protein of interest overnight at 4°C. Subsequently, cells were incubated with Duolink PLA probes (anti-rabbit and anti-mouse) for 1 h at 37°C, washed and incubated with Duolink ligase and polymerase enzymes for 30 and 100 min, respectively. As a negative control, PLA protocol was followed with the exception of the addition of the primary antibodies to determine the specificity of the PLA probes. Nuclei were counterstained by incubation with DAPI for 10 min. Membranes were mounted in glass coverslips using Vectashield Mounting Media. Images were acquired using a Leica TCS SP8 confocal microscope, via sequential scan to reduce fluorophore bleed-through, with a 63× oil immersion objective. z-stacks (10–20 stacks per sample) were collected (20 optical sections) and fluorescence intensity of the PLA signal was quantified using ImageJ. The abundance of PLA signal was normalized by the number of nuclei in each z-stack image. List of antibodies in Supplementary material.
Cell metabolic activity of BECs was assessed by using the RealTime-Glo™ MT Cell Viability Assay. Cells were seeded in 96-well plates at a density of 10 000 cells per well and incubated with Aβ assemblies at concentrations ranging 0.001–1 µM for 1 and 24 h. RealTime-Glo™ MT Assay was carried out according to the supplier’s instructions. […] To evaluate the effect of Aβ assemblies in the expression of LRP1, cells were treated for 2 h with Aβ at 10 µM and then, cells were collected and analysed by Western blotting, as described above.

LRP1 = molecular target: T2, LRP1 (Mus musculus, UniProt Q91ZX7); assay: LRP1 expression in BECs treated with Aβ assemblies (Western blot); assay type: cell-based; settings: 100 nM for 2 h, normalised to GAPDH and untreated cells, n = 3
T2 construct: endogenous in cells; host or cells: bEnd3 (ATCC CRL-2299)
Description: Polarized bEnd3 were washed twice with PBS and RIPA buffer containing protease inhibitors (1:50) was added directly to the transwell membranes and left on ice for 1 h. Cells were collected, centrifuged and the supernatant was collected for Western blot analysis. WT, KO and APP-PS1 mice were anaesthetized, decapitated and the brains were carefully collected from the skull. Brains were homogenized in a 4-fold excess volume of ice-cold buffer solution: 10 mM HEPES, 141 mM NaCl, 4 mM KCl, 2.8 mM CaCl2, 1 mM MgSO4, 1 mM NaH2PO4 and 10 mM glucose (pH 7.4) in a glass homogenizer (10–15 strokes). Microvessels and capillary-depleted fractions were prepared from WT, KO and APP-PS1 mice brains, as previously described.[28] Homogenate was suspended in an equal volume of 26% (w/v) dextran (64–76 kDa), mixed and centrifuged at 15 800 g for 10 min at 4°C. Pellet containing the brain microvessels was carefully separated from the supernatant containing capillary-depleted brain (parenchyma). Both fractions, microvessels and parenchyma, were washed twice in ice-cold buffered solution by centrifugation at 15 800 g for 10 min. Brain microvessels and parenchyma fractions were resuspended in RIPA lysis buffer containing protease inhibitors, centrifuged for 20 min, and the supernatant used for Western blot analysis. Protein levels in the lysates were determined using a BCA Protein Assay Kit. Lysates were mixed with Laemmli sample buffer, and proteins (25 µg) were separated on 10% SDS polyacrylamide gels and transferred to polyvinylidene difluoride (PVDF) membranes. All membranes were blocked with 5% (w/v) non-fat milk in Tris-buffered saline (TBS) containing 0.1% (w/v) Tween-20 (TBS-T) for 1 h and then incubated at 4°C with the primary antibody overnight. After washing with TBS-T three times for 5 min, membranes were incubated with the corresponding secondary antibody for 1 h at room temperature, washed with TBS-T and imaged using an Odyssey CLx (LI-COR Biosciences). […]
Cell metabolic activity of BECs was assessed by using the RealTime-Glo™ MT Cell Viability Assay. […]

[1] = Transmission electron microscopy of Aβ assemblies; assay type: physicochemical; settings: negative staining, ∼0.5 mg ml^−1 dispersion
Description: Peptide films were then resuspended in dimethyl sulfoxide (DMSO) to 5 mM, bath sonicated for 10 min and vortexed for 30 s. […] Immediately before use, the oligomeric solutions were centrifuged at 14 000 g for 10 min at 4°C (to remove any fibrils that might be present), and the supernatant was diluted to the final experimental concentration. […] TEM imaging was performed using a JOEL JEM-2200FS microscope equipped with a field emission gun at 200 kV, and an in-column Omega filter. TEM microscope was used in energy-filtered mode with the slit inserted to increase image contrast by collecting only elastically scattered electrons. Digital Micrograph™ software (version 3.20) was used for image acquisition and processing. […] For sample preparation, 400 mesh copper grids were glow-discharged for 40 s to render them hydrophilic. […] The grid was blotted with filter paper and immersed in Uranyless staining solution for 40 s for negative staining. The grid was blotted again and dried under vacuum for 1 min.

LRP1/syndapin-2 = molecular target: T3, LRP1/syndapin-2 (Mus musculus, UniProt Q91ZX7); assay: Proximity ligation assay LRP1/syndapin-2 in BECs treated with Aβ; assay type: cell-based; settings: Aβ assemblies at 100 nM for 15 min (Fig. 6B1)
T3 construct: endogenous in cells; host or cells: bEnd3 (ATCC CRL-2299), polarized

syndapin-2 = assay: Proximity ligation assay Aβ/syndapin-2 in BECs treated with Aβ assemblies; assay type: cell-based, mouse; settings: Aβ assemblies at 100 nM for 15 min (Fig. 6C1)
Description: as §1, with “Nuclei were counterstained by incubation with DAPI for 10 min. Membranes were mounted in glass coverslips using Vectashield Mounting Media.” left out, “The abundance of PLA signal was normalized by the number of nuclei in each z-stack image. List of antibodies in Supplementary material.” left out
Cell metabolic activity of BECs was assessed by using the RealTime-Glo™ MT Cell Viability Assay. […] To evaluate the effect of Aβ assemblies in the expression of LRP1, cells were treated for 2 h with Aβ at 10 µM and then, cells were collected and analysed by Western blotting, as described above.

[2] = Thioflavin T (ThT) fluorescence assay of Aβ assemblies; assay type: physicochemical; settings: Aβ preparation 10 µM in PBS with ThT 50 µM, 37°C, 450/485 nm; n = 3
Description: Aβ assemblies were prepared according to previously described protocols.[48],[49] Briefly, Aβ (1–40) peptide was dissolved in hexafluoro-2-propanol at 1 mM, vortexed and bath sonicated to obtain a homogenous solution, and aliquoted to microcentrifuge tubes. HIPF was removed by overnight evaporation and, once all solvent was removed, Aβ (1–40) films were stored at −80°C until further processed. Peptide films were then resuspended in dimethyl sulfoxide (DMSO) to 5 mM, bath sonicated for 10 min and vortexed for 30 s. […] Immediately before use, the oligomeric solutions were centrifuged at 14 000 g for 10 min at 4°C (to remove any fibrils that might be present), and the supernatant was diluted to the final experimental concentration. […] Monomeric Aβ was obtained by dissolving the peptide directly in DMSO at 1 mM. […] Aβ assemblies were characterized by measuring ThT fluorescence and transmission electron microscopy (TEM). […] Briefly, each Aβ preparation (20 µl, 10 µM) was incubated with ThT solution (80 µl, 50 µM) at 37°C and then the fluorescence of ThT was measured at 450/485 nm in a 96-well plate using a Spark Multimode microplate reader (Tecan). […] Images were recorded using a direct detection camera K2 IS from Gatan working in counted mode to allow for the sensitive Aβ structures to be imaged at low electron doses without beam damage. […]

T1 sequence (Q91ZX7 20-3944 limits assumed): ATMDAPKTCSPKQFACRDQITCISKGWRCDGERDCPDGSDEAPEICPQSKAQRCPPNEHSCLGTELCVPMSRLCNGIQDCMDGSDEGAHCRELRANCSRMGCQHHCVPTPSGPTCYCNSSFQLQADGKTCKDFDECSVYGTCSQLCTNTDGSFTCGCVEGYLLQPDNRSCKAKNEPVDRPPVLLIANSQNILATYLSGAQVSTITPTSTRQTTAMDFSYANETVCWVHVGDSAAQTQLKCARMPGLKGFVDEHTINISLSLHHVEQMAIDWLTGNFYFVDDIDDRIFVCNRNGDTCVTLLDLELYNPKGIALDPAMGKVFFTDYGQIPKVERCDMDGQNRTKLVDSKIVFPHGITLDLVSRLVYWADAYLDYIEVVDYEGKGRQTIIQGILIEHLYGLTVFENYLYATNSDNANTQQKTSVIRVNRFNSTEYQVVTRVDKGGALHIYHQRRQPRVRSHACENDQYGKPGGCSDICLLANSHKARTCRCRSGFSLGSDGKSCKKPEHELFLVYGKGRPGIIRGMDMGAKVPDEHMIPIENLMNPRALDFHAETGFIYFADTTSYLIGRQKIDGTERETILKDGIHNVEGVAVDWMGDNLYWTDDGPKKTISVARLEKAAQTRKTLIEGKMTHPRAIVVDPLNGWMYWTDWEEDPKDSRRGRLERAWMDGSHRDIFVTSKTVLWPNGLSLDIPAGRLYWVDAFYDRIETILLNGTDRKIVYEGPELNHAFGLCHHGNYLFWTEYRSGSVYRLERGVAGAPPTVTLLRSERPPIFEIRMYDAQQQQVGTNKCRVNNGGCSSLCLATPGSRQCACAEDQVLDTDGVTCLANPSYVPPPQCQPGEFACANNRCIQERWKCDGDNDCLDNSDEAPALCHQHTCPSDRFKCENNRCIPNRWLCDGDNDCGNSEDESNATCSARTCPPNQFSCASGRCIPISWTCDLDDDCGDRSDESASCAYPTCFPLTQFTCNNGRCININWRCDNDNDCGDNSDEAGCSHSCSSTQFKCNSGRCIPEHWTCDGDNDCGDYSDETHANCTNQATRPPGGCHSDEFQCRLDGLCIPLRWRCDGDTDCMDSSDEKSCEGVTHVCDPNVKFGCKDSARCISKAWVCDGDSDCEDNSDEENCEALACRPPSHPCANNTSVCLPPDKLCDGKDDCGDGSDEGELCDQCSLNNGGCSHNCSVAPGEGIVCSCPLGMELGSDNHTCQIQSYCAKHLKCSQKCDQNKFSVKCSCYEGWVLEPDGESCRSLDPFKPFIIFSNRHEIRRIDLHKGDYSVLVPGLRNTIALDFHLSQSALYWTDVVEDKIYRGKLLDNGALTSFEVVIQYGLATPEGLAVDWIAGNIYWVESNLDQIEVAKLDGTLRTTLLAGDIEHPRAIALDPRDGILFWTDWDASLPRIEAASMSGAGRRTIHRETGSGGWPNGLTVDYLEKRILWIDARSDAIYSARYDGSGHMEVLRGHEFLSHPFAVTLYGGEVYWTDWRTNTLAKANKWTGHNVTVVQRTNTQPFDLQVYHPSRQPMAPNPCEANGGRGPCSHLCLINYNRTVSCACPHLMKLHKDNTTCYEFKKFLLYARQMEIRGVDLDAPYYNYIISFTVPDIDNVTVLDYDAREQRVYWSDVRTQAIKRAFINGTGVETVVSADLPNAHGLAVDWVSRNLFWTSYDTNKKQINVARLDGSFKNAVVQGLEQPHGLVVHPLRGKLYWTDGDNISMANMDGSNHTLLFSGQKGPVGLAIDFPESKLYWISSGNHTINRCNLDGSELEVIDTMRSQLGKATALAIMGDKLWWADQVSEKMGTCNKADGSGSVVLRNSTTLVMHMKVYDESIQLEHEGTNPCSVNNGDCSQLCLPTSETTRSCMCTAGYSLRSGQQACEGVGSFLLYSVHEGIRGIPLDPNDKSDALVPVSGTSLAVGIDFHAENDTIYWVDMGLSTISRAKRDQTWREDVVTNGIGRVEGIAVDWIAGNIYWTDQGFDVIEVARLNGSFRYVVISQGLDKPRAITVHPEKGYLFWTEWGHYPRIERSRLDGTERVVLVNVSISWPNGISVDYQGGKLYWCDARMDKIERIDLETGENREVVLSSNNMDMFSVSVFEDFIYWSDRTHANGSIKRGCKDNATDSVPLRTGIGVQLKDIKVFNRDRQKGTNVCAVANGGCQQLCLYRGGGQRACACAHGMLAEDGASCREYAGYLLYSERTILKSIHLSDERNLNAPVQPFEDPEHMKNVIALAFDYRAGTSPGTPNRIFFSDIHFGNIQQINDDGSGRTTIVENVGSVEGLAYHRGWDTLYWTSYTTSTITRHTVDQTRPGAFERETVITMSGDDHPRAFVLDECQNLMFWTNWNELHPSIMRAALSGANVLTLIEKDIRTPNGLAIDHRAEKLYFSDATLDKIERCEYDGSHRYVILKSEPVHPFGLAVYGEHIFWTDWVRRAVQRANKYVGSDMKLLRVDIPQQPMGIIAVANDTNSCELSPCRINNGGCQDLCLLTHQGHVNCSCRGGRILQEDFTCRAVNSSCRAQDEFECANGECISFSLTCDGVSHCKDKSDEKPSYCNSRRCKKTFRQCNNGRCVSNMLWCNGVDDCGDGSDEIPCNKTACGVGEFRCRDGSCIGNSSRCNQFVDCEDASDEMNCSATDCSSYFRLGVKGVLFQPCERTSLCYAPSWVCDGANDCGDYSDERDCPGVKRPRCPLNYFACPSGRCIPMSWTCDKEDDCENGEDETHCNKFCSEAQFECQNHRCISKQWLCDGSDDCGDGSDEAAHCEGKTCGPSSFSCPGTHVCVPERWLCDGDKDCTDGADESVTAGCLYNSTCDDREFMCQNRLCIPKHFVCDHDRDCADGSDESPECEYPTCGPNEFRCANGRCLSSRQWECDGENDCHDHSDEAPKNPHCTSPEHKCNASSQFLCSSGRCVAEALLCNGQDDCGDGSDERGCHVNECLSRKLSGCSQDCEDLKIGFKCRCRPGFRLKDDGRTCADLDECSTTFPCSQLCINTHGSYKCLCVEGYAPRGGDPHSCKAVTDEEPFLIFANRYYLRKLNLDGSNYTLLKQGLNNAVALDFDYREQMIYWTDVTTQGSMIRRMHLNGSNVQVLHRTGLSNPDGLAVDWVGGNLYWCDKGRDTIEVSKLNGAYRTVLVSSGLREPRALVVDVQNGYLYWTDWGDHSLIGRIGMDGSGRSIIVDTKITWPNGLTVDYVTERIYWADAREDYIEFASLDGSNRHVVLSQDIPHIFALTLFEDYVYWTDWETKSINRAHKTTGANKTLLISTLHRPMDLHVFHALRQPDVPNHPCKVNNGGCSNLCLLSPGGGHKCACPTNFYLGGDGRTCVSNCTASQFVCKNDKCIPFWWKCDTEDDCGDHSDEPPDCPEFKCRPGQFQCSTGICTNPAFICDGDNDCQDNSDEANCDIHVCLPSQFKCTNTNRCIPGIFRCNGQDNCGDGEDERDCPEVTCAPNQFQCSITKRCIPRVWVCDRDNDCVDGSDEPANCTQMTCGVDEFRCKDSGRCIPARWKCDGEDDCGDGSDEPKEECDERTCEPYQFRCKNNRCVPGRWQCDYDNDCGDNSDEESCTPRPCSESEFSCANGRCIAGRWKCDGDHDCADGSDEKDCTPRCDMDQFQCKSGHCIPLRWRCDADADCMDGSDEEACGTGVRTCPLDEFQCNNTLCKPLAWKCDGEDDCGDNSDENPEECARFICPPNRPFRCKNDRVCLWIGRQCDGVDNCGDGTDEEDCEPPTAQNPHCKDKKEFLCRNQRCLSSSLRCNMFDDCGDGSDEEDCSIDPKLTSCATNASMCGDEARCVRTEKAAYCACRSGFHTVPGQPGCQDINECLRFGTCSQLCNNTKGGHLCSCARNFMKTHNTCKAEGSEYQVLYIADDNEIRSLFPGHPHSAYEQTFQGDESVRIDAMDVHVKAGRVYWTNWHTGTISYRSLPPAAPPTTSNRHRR
T1 sequence (Q91ZX7 3945-4545 limits assumed): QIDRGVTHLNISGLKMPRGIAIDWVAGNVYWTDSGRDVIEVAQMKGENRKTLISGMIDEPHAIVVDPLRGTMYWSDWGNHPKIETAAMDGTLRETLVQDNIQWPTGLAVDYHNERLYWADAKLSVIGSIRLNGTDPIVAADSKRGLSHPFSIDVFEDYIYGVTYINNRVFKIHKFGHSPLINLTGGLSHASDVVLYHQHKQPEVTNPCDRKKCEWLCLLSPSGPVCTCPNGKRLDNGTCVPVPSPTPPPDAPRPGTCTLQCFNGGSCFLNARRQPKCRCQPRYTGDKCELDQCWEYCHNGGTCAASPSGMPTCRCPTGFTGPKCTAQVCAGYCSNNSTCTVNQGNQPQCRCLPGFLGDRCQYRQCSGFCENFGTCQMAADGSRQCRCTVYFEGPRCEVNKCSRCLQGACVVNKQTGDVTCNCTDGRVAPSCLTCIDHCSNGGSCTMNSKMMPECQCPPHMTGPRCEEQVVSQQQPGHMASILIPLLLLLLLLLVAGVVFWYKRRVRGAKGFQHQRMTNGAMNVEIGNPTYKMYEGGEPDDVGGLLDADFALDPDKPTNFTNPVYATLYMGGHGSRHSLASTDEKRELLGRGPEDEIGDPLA
T3 sequence (Q91ZX7 20-3944 limits assumed): as the sequence (Q91ZX7 20-3944 limits assumed) above
T3 sequence (Q91ZX7 3945-4545 partner limits assumed): as the sequence (Q91ZX7 3945-4545 limits assumed) above

LRP1/Rab5 association (PLA) (LRP1/Rab5)	LRP1 expression (LRP1)	LRP1/syndapin-2 interaction (PLA), comparison among assemblies (LRP1/syndapin-2)	Reduction in the expression levels of LRP1 (LRP1) [fold]	Substance	Morphology (TEM) [1]	Association of Aβ with syndapin-2 (PLA) (syndapin-2)	ThT fluorescence intensity (fibril structure) [2]	Thickness of fibrils (TEM) [1] [nm]
favour LRP1/Rab5 association	unaltered			Aβ monomers: Monomeric Aβ obtained by dissolving the Aβ (1–40) peptide directly in DMSO at 1 mM	small assemblies and agglomerates			
decrease	unaltered	highest increase		Aβ oligomers: Aβ (1–40) oligomers formed in PBS at 4°C for 24 h, supernatant after centrifugation		more associated with syndapin-2		
favour LRP1/Rab5 association			2	Aβ fibrils: Aβ (1–40) fibrils prepared in cold 10 mM HCl, incubated at 37°C for 24 h			characteristic increase in the fluorescence intensity of ThT	~10
